Sequences and labels used below:
B1: HDV Ribozyme (parent)
chain: GGCCGGCAUGGUCCCAGCCUCCUCGCUGGCGCCGGCUGGGCAACAUUCCGAGGGGACCGUCCCCUCGGUAAUGGCGAAUGGGACCCA

Variants of B1 are the subject of this series. The experiment in a line: self-cleavage, relative activity (ratio to wild type); higher = more cleavage; co-transcriptional.
For A43G U69A, the self-cleavage worked out at 0.623.
For C61G G67U the value was 0.649; for A8C G25C, 0.
As for G29U C66U, the self-cleavage is 0.147.
G74A G82C: the self-cleavage stood at 0.249.
Take G50U G53C: the self-cleavage turned out to be 0.437.
With C33G U79C, the self-cleavage amounted to 0.0875.
With U9G U72C the figure was 0.415; with G50C A56U, 0.935.
For C64U U79A the value was 0.597.
With G40U G55U the figure was 0.621.
In the case of A45C A83C, the self-cleavage came out at 0.0615.
As to C7G A83U, the self-cleavage was 0.
Take C7G G35A: the self-cleavage was determined as 0.156.
With C4A U23G the figure was 0.0449; with C24A C44A, 0.217.
For C13A G29U the value was 0.0782; for C4G C18G, 0.0282; for G50U C86A, 0.727.
With C7G U69G the figure was 0.293; with G35U A83C, 0.181.
For the variant U47A C61A, the self-cleavage amounted to 0.886.
For C15G A71G the value was 0.727; for G2U G76A, 0.112.
For C3A G74A the value was 0.0326.
For A16G A83C, the self-cleavage is 0.462.
With C15U U37G the figure was 0.158; with A8U G54C, 0.538.
For U20C A70G, the self-cleavage worked out at 0.107.
With C32A U37C, the self-cleavage was 0.203.
Turning to U60A C64U, the self-cleavage stood at 1.13.
For A8C C41A the value was 0.798; for C15A A78C, 0.0652; for G28U A42G, 0.0426.
On to C32A U69C, for which the self-cleavage turned out to be 0.161.
Take A70G G73C: the self-cleavage was 0.356.
As to A8C U27A, the self-cleavage was 0.867.
For G29A C64A the value was 0.22; for G5C A8G, 0.
With G6A C26A the figure was 0.888.
In the case of U37C A42C, the self-cleavage was found to be 0.115.
With C18G C86A the figure was 0; with C13U G29A, 0.104.
With C13A G25U the figure was 0.0791; with G17A C48G, 0.46.
With C7U U46G the figure was 0.68; with G2A G11U, 0.0328.
With C21A C41G, the self-cleavage amounted to 0.
As to C14G G38A, the self-cleavage was determined as 0.0831.
For the variant U12A G68C, the self-cleavage was determined as 0.0755.
In the case of G28C U37C, the self-cleavage was determined as 0.101.
For C15U C49G the value was 0.485; for C33U G76A, 0.978.
With U79A C84G the figure was 0.256; with G25C C36A, 0.128; with U20C U23A, 0.115.
With A56C C66G the figure was 0.99.
Take C4G G50A: the self-cleavage came out at 0.415.
With C19A U20G the figure was 0.217; with C64G U79G, 0.506; with C64A C84U, 0.694.
For C32U G55A the value was 0.967.
With U12G A71U the figure was 0.791; with C41U C84U, 0.765; with C57U U65G, 0.919.
For the variant U9G C49G, the self-cleavage was determined as 0.886.
With G17A G74A the figure was 0.132; with U20G U72C, 0; with U69C A87G, 1.1.
With G38C A78C, the self-cleavage was 0.
With U23A G81C the figure was 0.306; with A45C G68U, 0.604.
For G25C G81U the value was 0.151; for G35U A42C, 0.115; for C36G A77U, 0.177.
As for G2U C44A, the self-cleavage stood at 0.0583.
For the variant A8G U65G, the self-cleavage is 0.906.
In the case of U37G C86G, the self-cleavage was 0.111.
For C48U A56C the value was 0.657; for C22U U47G, 0.58; for G73A C84G, 0.345.
With U27G U46G the figure was 0.462; with C7U C22U, 0.394; with C61G G80C, 0.348.
In the case of G67U A78C, the self-cleavage was 0.223.
For C30A C66G the value was 0.675; for U9G C44G, 0.7.
Turning to U9A C57G, the self-cleavage was found to be 1.18.
For A16C A71G the value was 0.7.
With G40C A42U the figure was 0.151; with G54C G82U, 0.448.
For C14G C36U the value was 0.375; for C48A C58U, 1.11; for C26U C30U, 0.967.
G53U C64A: the self-cleavage stood at 0.777.
For C26A G73A, the self-cleavage worked out at 0.89.
With A16C G59A the figure was 0.649; with C24A U69C, 0.712.
For G31U U37G the value was 0.107; for U23C U60A, 0.877.
For G5A C33G the value was 0.0615; for U60G G76U, 0.969.
Consider U12A C26A, for which the self-cleavage worked out at 0.745.
With C22G G40C the figure was 0.0665.
As to U46C G52A, the self-cleavage came out at 1.03.
For the variant U23A A78G, the self-cleavage was 0.697.
For A45C A70U the value was 0.508.
With G38A A45U the figure was 0.107; with G1A C18A, 0.113.
For G2C G25U the value was 0.0702; for G39C C57G, 0.415.
Regarding C48U U79G, the self-cleavage stood at 0.665.
With A56U G73C the figure was 0.698.
Turning to C48U C61U, the self-cleavage was determined as 0.856.
In the case of G2U A51G, the self-cleavage was determined as 0.0683.
For U20A C49A the value was 0.
For the variant U23C C44A, the self-cleavage turned out to be 0.462.
With U72G C85A, the self-cleavage was 0.653.
With C24A C61A, the self-cleavage worked out at 0.906.
For C44G C64U the value was 0.686; for C58A A87U, 1; for U27G G29C, 0.733.
In the case of G28U C58U, the self-cleavage is 0.185.
For U27C the value was 0.8; for A43C G76A, 0.554; for G11U G53A, 0.427.
With A51G C63A the figure was 0.734; with G55A C85A, 1.02.
As for G35C C58U, the self-cleavage was 0.231.
On to A8C C61G, for which the self-cleavage stood at 0.772.
In the case of G68C G74U, the self-cleavage stood at 0.394.
G31U C58A: the self-cleavage came to 0.35.
For the variant U20A G73C, the self-cleavage stood at 0.0615.
Turning to G55A A77C, the self-cleavage was 0.302.
For G34A G73A the value was 0.128.
On to U72C G80C, for which the self-cleavage was 0.19.
On to C7U G81A, for which the self-cleavage was determined as 0.352.
Turning to G35U U72C, the self-cleavage is 0.0811.
For the variant C18A C41U, the self-cleavage is 0.0339.
For C7G G53U the value was 0.26; for C14G A16C, 0.0875; for G55U A56U, 0.797.
Regarding C33G G52U, the self-cleavage was determined as 0.119.
For G35A G38C the value was 0.0652; for C26U A51C, 0.872.
Take C63G G74U: the self-cleavage was determined as 0.529.
Regarding G38C A83G, the self-cleavage came to 0.201.
For C36U G59A the value was 0.704; for A51U G52A, 1.15.
With C32G G54U the figure was 0.153; with G59U A70C, 0.77.
With C21A A43U the figure was 0.0944; with U46A C63U, 0.763; with C4U G74U, 0.163.
Consider G28C U69C, for which the self-cleavage was 0.101.
With G6A U37A the figure was 0.214.
With G17A G31A the figure was 0.234.
With U12G C48G, the self-cleavage is 0.831.
With C48G G80C the figure was 0.262; with G2A G31C, 0.0354; with C44A U60G, 0.554.
With U23C A42G, the self-cleavage was 0.227.
For G59A U79A the value was 0.884; for U9A C64A, 1.04; for U12C A51G, 0.369.
For C63U G73C the value was 0.618; for C13G C24G, 0.

These data come from the RNAGym collection of RNA variant scans (doi:10.7554/elife.80360).
